Laboratory results taken from US10704056B2, “Constitutively active ABA receptor mutants” (The Regents of the University of California, priority 2011, dated 2020).

Legend:
ABI2 = biological target: T1, ABI2 (Arabidopsis thaliana, UniProt O04719); assay: In vitro PP2C phosphatase (pNPP) receptor activation assay with ABI2; format: biochemical; conditions: 600 nM PP2C, 0-4800 nM receptor, no ABA
T1 construct: Full length ABI1 and ABI2 were cloned into a modified pSUMO vector; made in house; host or cells: E. coli BL21 (DE3) pLysS
T1 sequence (O04719 1-423): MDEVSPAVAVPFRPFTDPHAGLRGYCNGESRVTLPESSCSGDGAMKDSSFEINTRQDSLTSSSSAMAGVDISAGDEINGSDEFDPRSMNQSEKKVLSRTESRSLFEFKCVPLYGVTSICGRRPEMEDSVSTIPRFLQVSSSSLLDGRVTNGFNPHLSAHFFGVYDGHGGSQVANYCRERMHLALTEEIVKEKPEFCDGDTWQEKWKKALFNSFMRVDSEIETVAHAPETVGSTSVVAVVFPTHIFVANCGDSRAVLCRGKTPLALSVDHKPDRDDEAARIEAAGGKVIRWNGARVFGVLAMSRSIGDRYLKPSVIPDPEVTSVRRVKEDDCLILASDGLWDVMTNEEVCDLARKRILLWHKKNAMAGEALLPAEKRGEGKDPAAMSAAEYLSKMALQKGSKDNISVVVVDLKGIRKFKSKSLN
Protocol: (§1) Full length ABI1 and ABI2 were cloned into a modified pSUMO vector (LifeSensors Inc, USA) vector yielding 6×His-SUMO fusion proteins; GST-HAB1 was expressed and purified as previously described (Park et al., 2009). Mutant receptors were cloned into pET28 yielding 6×His-fusion proteins. […]. The cultures were pre-incubated 2 hours at 30° C. and, for PP2C expression, media was supplemented with 4 mM MnCl2 one hour after inoculation. After pre-incubation, IPTG was added (1 mM) and cells were induced at 15° C. for 16 hours, after which they were collected by centrifugation, resuspended in 5 ml Buffer A (50 mM NaH2PO4, 300 mM NaCl) +10 mM imidazole, pH 8.0 and stored at −80° C. For purification, cells were thawed, sonicated on ice (60 seconds) and a cleared lysate was then applied a 1 ml-bed volume column of Ni-NTA (Qiagen, USA), washed with 20 column volumes of Buffer A+30 mM imidazole and bound protein eluted with 1 ml of Buffer A+250 mM imidazole. For receptors, the elutate was dialyzed against TBS and for PP2Cs, fusion proteins were desalted by passage over a Sephadex G50 column.
(§2) The purified receptors and phosphatases were then used in receptor assays where receptor activation is indicated by inhibition of phosphatase activity, as inferred from initial reaction velocities for PP2C-mediated hydrolysis of the synthetic phosphatase substrate pNPP in reactions containing 600 nM PP2C and either 0, 600, 1200, 2400 or 4800 nM receptor. The receptor assay buffer consisted of 33 mM Tris-OAc, pH 7.9, 66 mM KOAc, 0.1% BSA, 25 mM Mn(OAc)2, 0.1%13-ME and 50 mM pNPP. Immediately after mixing proteins and substrates, reactions were monitored for hydrolysis of pNPP at A405 at ˜2 minutes intervals using a Wallac plate reader. Reaction progressions were plotted, initial velocities calculated and converted to specific activities by comparison to a standard curve for 4-nitrophenol made in the same buffer system. PP2C activity values shown in figures are expressed as %-control phosphatase activity levels, as measured under identical reaction conditions in the absence of receptor protein. The average specific activity level of GST-HAB1, 6×His-SUMO-ABI1 and 6×His-SUMO-ABI2 utilized in our experiments was 4500 (GST-PP2C) or 2500 (SUMO-PP2C) μmol/min/mg, when assayed using the phosphatase substrate pNPP in the absence of PYR1 or other receptors.

ABI1 = biological target: T2, ABI1 (Arabidopsis thaliana, UniProt P49597); assay: In vitro PP2C phosphatase (pNPP) receptor activation assay with ABI1; format: biochemical; conditions: 600 nM PP2C, 0-4800 nM receptor, no ABA
T2 construct: Full length ABI1 and ABI2 were cloned into a modified pSUMO vector; made in house; host or cells: E. coli BL21 (DE3) pLysS
T2 sequence (P49597 1-434): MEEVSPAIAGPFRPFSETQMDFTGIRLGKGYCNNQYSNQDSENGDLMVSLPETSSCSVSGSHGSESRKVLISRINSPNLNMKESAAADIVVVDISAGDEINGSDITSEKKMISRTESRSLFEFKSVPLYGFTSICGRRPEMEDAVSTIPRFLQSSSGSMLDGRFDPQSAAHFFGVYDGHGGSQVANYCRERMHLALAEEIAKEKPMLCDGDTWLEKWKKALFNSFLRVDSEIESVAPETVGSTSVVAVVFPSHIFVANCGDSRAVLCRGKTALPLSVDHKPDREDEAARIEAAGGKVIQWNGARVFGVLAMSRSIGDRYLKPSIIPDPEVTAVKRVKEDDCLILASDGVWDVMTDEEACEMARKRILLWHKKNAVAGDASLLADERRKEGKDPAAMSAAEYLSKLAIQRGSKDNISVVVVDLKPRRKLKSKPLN
Protocol: as §1, §2

B1: PYL2^CA3: PYL2 mutant (H65P, V87F, F165V); expressed in plants as 35S-driven GFP fusion (protein)
chain: HHHHHHMSSSPAVKGLTDEEQKTLEPVIKTYHQFEPDPTTCTSLITQRIHAPASVVWPLIRRFDNPERYKPFVKRCRLISGDGDVGSVREVTFISGLPASTSTERLEFVDDDHRVLSFRVVGGEHRLKNYKSVTSVNEFLNQDSGKVYTVVLESYTVDIPEGNTEEDTKMVVDTVVKLNLQKLGVAATSAPMHDDE
constitutive receptor activity on ABI2 in the absence of ABA (ABI2): active towards multiple PP2Cs
constitutive receptor activity on ABI1 in the absence of ABA (ABI1): active towards multiple PP2Cs
